Test results as given in paper doi:10.1101/2021.12.26.474192 (bioRxiv, 2021).

Key:
[1] = target: T1, SARS-CoV-2 receptor-binding domain (RBD), S protein residues 319-539 (SARS-CoV-2, GenBank MN985325.1 …, UniProt P0DTC2); test: SPR
[2] = target: T2, BM-4831-CoV RBD, residues 310-530 (Bat coronavirus BM48-31/BGR/2008, strain); test: SPR
[3] = target: T3, SARS-CoV RBD, residues 318-510 (SARS-CoV (GenBank AAP13441.1), UniProt P59594); test: SPR
[4] = target: ZC45-CoV RBD, residues 327-509 (Bat SARS-like coronavirus ZC45, UniProt A0A2R3SUW7, strain); test: ELISA
[5] = target: Rs7327-CoV RBD, residues 319-518 (Bat SARS-like coronavirus Rs7327, UniProt A0A2D1PXC0, strain); test: ELISA
[6] = target: Rf1-CoV RBD, residues 310-515 (Bat SARS CoV Rf1/2004, UniProt Q0QDZ0, strain); test: ELISA
[7] = target: W1V1-CoV RBD, residues 307-528 (Bat SARS-like coronavirus WIV1 (printed …, UniProt U5WI05)); test: ELISA
[8] = target: Shaanxi2011-CoV RBD, residues 321-502 (Bat coronavirus Rp/Shaanxi2011, UniProt R9QTA0, strain); test: ELISA
[9] = target: RaTG13-CoV RBD, residues 319-541 (Bat coronavirus RaTG13, UniProt A0ABF7PLN6, strain); test: ELISA
[10] = target: BtkY72-CoV RBD, residues 309-530 (Bat sarbecovirus BtKY72, UniProt A0A3Q8AKM0); test: ELISA
[11] = target: pangolin17-CoV RBD, residues 317-539 (Pangolin coronavirus (pangolin17), strain); test: ELISA
[12] = target: YN2013-CoV RBD, residues 314-496 (BtRs-BetaCoV/YN2013, UniProt A0A0U1WJY8, strain); test: ELISA
[13] = target: Rp3-CoV RBD, residues 322-504 (Bat coronavirus Rp3/2004, UniProt Q3I5J5); test: ELISA
[14] = target: SHC014-CoV RBD, residues 307-524 (Bat SARS-like coronavirus RsSHC014, UniProt U5WLK5, strain); test: ELISA
[15] = target: HKU3-1-CoV RBD, residues 322-505 (Bat coronavirus HKU3, isolate HKU3-1, UniProt Q3LZX1, strain); test: ELISA
[16] = target: Rs4092-CoV RBD, residues 314-496 (Bat SARS-like coronavirus Rs4092, UniProt A0A2D1PX37, strain); test: ELISA
[17] = target: Yun11-CoV RBD, residues 310-515 (Bat coronavirus Cp/Yunnan2011, UniProt R9QTH3); test: ELISA
[18] = target: Rs4081-CoV RBD, residues 310-515 (Bat SARS-like coronavirus Rs4081, UniProt A0A2D1PX44, strain); test: ELISA
[19] = target: T1, SARS-CoV-2 receptor-binding domain …; test: cryo-EM structure
[20] = target: SARS-CoV-2 spike receptor-binding domain (RBD) used in the crystallographic study (SARS-CoV-2, UniProt P0DTC2); test: crystal structure
[21] = target: T1, SARS-CoV-2 receptor-binding domain …; test: ELISA
[22] = target: T3, SARS-CoV RBD, residues 318-510; test: ELISA
[23] = target: T2, BM-4831-CoV RBD, residues 310-530; test: ELISA

B1: psNb 2-45 (VHH)
VHH: QVQLVESGGGLVQAGGSLRLSCTASGYDFSILAIAWYRQAPGKERELVAAISRVGSTDYADSVKGRFTISRDNTKNTVSLQMDSLKPEDTAVYYCNAGIPMTTVLSGLGFWGQGTQVTVSS
Kd [1]: 0.39 nM | Kd [2]: 0.044 nM | Kd [3]: 304 nM | binding result [4]: binds | binding result [5]: binds | binding result [6]: binds | binding result [7]: binds | binding result [8]: binds | binding result [9]: binds | binding result [10]: binds | binding result [11]: binds | binding result [12]: binds | binding result [13]: binds | binding result [14]: binds | binding result [15]: binds | binding result [16]: binds | binding result [17]: binds | binding result [18]: binds

B2: psNb 2-31 (VHH)
VHH: QVQLVESGGGLVQAGESLRLSCAASKPTFRNFAAGWFRQTPGKDREFVAVIEYDGDSAYYADSVKGRFTISRDNAKNTVYLQMNRLKPGDTAVYICAIGGNHYDPSKYYTADEYDYWGQGTQVTVSS
Kd [1]: < 0.001 nM | Kd [2]: 3.6 nM | Kd [3]: 0.00396 nM | binding result [4]: binds | binding result [5]: binds | binding result [6]: binds | binding result [7]: binds | binding result [8]: binds | binding result [9]: binds | binding result [10]: binds | binding result [11]: binds | binding result [12]: binds | binding result [13]: binds | binding result [14]: binds | binding result [15]: binds | binding result [16]: binds | binding result [17]: binds | binding result [18]: binds

B3: psNb 2-10 (VHH)
VHH: QVQLVESGGGLVQPGGSLRLSCAASGFTFNRYAMSWVRQAPGKGREWVSGIYSDGSETYYTESVKGRFTISRDNAKNMLYLQMNSLKPEDTALYYCAKDENAHEDYFNSGFDRKYDYWGQGTQVTVSS
binding result [19]: binds

B4: psNb 2-62 (VHH)
VHH: QVQLVESGGGLVQAGGSLRLSCAASGRTFSTYAMAWFRQAPGKEREFVAGVARSADTTYYGDSVKGRFTISRDNAKNEVNLQMSSLKPEDTAVYYCAARSVIQYGIVPGNDFHYEYWGQGTQVTVSS
binding result [19]: binds

B5: psNb 1-25 (VHH)
VHH: HVQLVESGGGLVQAGGSLRLSCATSGRTFSTYRMSWFRQAPGKEREFVATIIWSVGSTHYADSVKGRFTISRDNAKNMVYLQMNSLKPEDTAVYYCAAQRSDSSSWGYEDDYDYWGQGTQVTVSS
binding result [19]: binds

B6: psNb 2-67 (VHH)
VHH: EVQLVESGGGLVQTGGSLRLSCALSGYTFSIFPTAWFRQAPGKEREFVAGIRWNGSTRDYTEYADFVKGRFTISRDNAKNMVYLQMISLKPEDTALYYCAASDGVIDGTNANAYRYWGQGTQVTVSS
binding result [19]: binds

B7: psNb 1-21 (VHH)
VHH: HVQLVESGGGLVQAGGSLRLSCAAPGRTFSTSAMGWFRQAPGKEREFVAAIDWSNTNIHYADTVKGRFTISTDTAKNTVYLQMNNLKPEDTAVYYCAQGGWGLTQPISVDYWGKGTQVTVSS
binding result [20]: binds | binding result [21]: binds | binding result [22]: binds

B8: psNb 2-34 (VHH)
VHH: HVQLVESGGGLVQAGGSLRLSCAASGRTFSRYAAGWFRQAPGKEREFVAVIEWDGDSAYYADPVKGRFTISRDNAKNTVYLQMNRLKPEDTAVYICAVGGNHYSRSKYYNLDEYDDWGQGTQVTVSS
binding result [4]: binds | binding result [5]: binds | binding result [21]: binds | binding result [6]: binds | binding result [7]: binds | binding result [23]: binds | binding result [8]: binds | binding result [22]: binds | binding result [9]: binds | binding result [10]: binds | binding result [11]: binds | binding result [12]: binds | binding result [13]: binds | binding result [14]: binds | binding result [15]: binds | binding result [16]: binds | binding result [17]: binds | binding result [18]: binds

B9: psNb 1-22 (VHH)
VHH: HVQLVESGGGLVQPGGSLRLSCAASGRSFNSYLMGWFRQAPGKEREFVAWISGSPHDIIRYRDSVKDRFTISRDNAKNTVYLQMNSLKPVDTAVYYCAVGSLRVGSFSPDYWGQGTQVTVSS
binding result [21]: binds | binding result [23]: binds | binding result [22]: binds

B10: psNb 2-38 (VHH)
VHH: QVQLVESGGGLVQAGGSLRLSCAAAARFSTSAMGWFRQAPGKEREFVAAISWSNTNTHYADTVKGRFTISADTAKETVDLQMNSLKPEDTAVYYCVQGGWGIRQPIIVDYWGKGTQVTVSS
binding result [21]: binds | binding result [23]: binds | binding result [22]: binds

B11: psNb 1-23 (VHH)
VHH: QVQLVESGGGLVQAGGSLRLSCAASGRTDSISDMGWFRQAPGKEREFVAVVGWSGGGTDYAHSVKGRFTISRDNAKNTVYLQMNSLKPEDTAVYYCAVGSLRVGSFSVEYWGQGTQVTVSS
binding result [21]: binds | binding result [23]: binds | binding result [22]: binds

B12: psNb 2-65 (VHH)
VHH: HVQLVESGGGLVQAGGSLRLSCAASGTISTLNAMGWYRQAPGKQRELLASISNLGTTYHADSVAGRFTISRGSAKNTVNLQMNSLKPDDTAVYYCNTRVLEGGTQIRDYWGQGTQVTVSS
binding result [21]: binds | binding result [23]: binds
